{"source": "patent US6087375A", "about": "“Methods of treating or preventing thromboses” (priority 1999, dated 2000)", "key": {"[1]": {"biological_target": "thrombin from human plasma (Homo sapiens, UniProt P00734)", "test": "Km-based fluorogenic assay for inhibition of thrombin (Example 7)", "assay_type": "biochemical", "parameters": "from tissue; host or cells: human plasma", "conditions": "FIG. 9, ambient temperature, pH 7.2", "method": "Thrombin from human plasma was obtained from Enzyme System Products, Dublin, Calif., in glycerol:water 1:1, 11.4 mg/ml, 3800 U/mg, MW 36,700, and stored undiluted at -20° C. It was freshly diluted the day of use.\nTo dilute for the assay, 0.67 μl (25 Units) of thrombin was pipetted into 5 ml of 0.1 mg/ml BSA (from Pierce, Catalog No. 23209, BSA fraction V, a 2 mg/ml stock in saline with sodium azide), in cold PBS (GIBCO, Catalog No. 14190-136, without calcium chloride and magnesium chloride, pH 7.2) and briefly vortexed, yielding a stock of 5 mU thrombin/μl.\nThe substrate was N-tBOC-β-Benzyl-Asp-Pro-Arg-7-Amido4-Methylcoumarin HCl and was obtained from Sigma, Catalog No. B4028, Lot 122H0070, F.W. 770.3. Five mg was dissolved in […] DMSO for a 4 mM stock. The stock was stored in 200 μl aliquots at -20° C. in the dark.\nAn alternative substrate was N-tBOC-Val-Pro-Arg-7-Amido4-Methylcoumarin HCl and was obtained from Sigma, Catalog No. B-9385, Lot 53H0805, F.W. of free base 627.7. Five mg was dissolved in 1.863 ml DMSO for a 4 mM stock. The stock was stored in 200 μl aliquots at -20° C. in the dark.\nThe fluorescent standard was 7-Amido4-Methylcoumarin and was obtained from Aldrich, Catalog No. 25,737-0, MW 175.19. […]\nInitial readings were taken to ensure exclusion of rogue wells with abnormally high backgrounds (λ excitation at 360 nm, bandwidth […], λ emission, 460 nm, bandwidth 40 nm). Then, 25 μl of a 10×stock of the putative inhibitor were added per well, mixed for 5 seconds and read kinetically for 10 minutes at ambient temperature to assess background interference and/or any increase in hydrolysis of substrate due to inhibitor.\nThe thrombin assay was then initiated by adding 25 μl of thrombin/well with a multichannel pipettor and mixed for 5 seconds. The appearence of the fluorescent product (free 7-amido-4-methylcoumarin released from the peptide by thrombin) was followed simultaneously in 48 wells (one reading per minute for 30 minutes, λ excitation at 360 nm, bandwidth 40 nm, λ emission, 460 nm, bandwidth 40 nm). […]"}, "[2]": {"biological_target": "rabbit serum albumin (RSA) (Oryctolagus cuniculus, UniProt P49065)", "sequence (P49065 25-608)": "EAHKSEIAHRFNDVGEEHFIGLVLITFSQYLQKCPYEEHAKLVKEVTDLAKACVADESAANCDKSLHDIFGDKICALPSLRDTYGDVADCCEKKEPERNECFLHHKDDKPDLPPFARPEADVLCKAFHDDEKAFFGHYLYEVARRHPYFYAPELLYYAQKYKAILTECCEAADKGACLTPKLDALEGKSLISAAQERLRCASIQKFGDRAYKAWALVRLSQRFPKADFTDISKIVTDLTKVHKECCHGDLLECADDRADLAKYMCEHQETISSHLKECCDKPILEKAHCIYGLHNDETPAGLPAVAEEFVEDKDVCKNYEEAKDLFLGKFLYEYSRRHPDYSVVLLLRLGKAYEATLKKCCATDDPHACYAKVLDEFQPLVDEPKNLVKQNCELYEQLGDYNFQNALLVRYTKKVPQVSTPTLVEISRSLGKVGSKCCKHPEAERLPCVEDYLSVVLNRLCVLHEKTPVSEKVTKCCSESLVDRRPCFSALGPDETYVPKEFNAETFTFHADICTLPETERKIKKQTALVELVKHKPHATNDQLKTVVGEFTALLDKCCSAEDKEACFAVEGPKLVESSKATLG", "test": "Mass spectrometric analysis of conjugation to RSA (HPLC/ESIMS, MALDI-TOFMS)", "assay_type": "binding", "conditions": "LC/MS; 15 μM RSA, 200 μM argatroban-C6 NHS ester, 1 hour (Example 8)", "method": "All samples were analyzed using a high performance liquid chromatograph (HPLC) coupled in-line to an electrospray ionization (ESI) mass spectrometer (MS) which is termed HPLC/ESIMS. Some samples were also analyzed using a matrix-assisted laser desorption ionization (MALDI) time-of-flight (TOF) mass spectrometer which is termed (MALDI-TOFMS).\nSamples for HPLC/ESIMS were either prepared as duplicate reaction samples or were part of the same reaction samples which were used in the ELISA assays described below. These samples were injected directly only the HPLC/ESIMS without any manipulation other than dilution with water, where the PBS, DMSO, and unreacted derivative molecules are separated from the protein-argatroban derivative molecule conjugate. Samples for MALDI-MS were first HPLC-purified and mixed 1:1 directly on the stainless steel analysis plate with a matrix of 10 mg/ml sinnapinic acid in 50% acetonitrile/50% water. The mixture was then dried with a gentle flow of air to allow for crystallization and inserted into the instrument for laser ionization.\nThe HPLC is a Hewlett Packard 1090 Series II liquid chromatogram with a diode array detector. The column used for separation is a Brownlee aquapore OD-300 reversed phase C18 column, 1 mm×10 cm, 300 Å pore size, 7 μm particle diameter. The mass spectrometer to which the HPLC is connected using fused Silica capillary tubing is a Sciex API-300 triple quadrupole mass spectrometer with an ionspray source to allow for atmospheric pressure ionization of a liquid flowing continuously into the instrument. The MALDI-TOFMS is a Perceptive Biosystems Voyager Elite DE instrument run in the linear mode.\nThe conjugate was prepared according to the following protocol. […] Sham samples consist of the RSA incubated for the same length of time at RT in 2% DMSO in PBS. Each of the samples was then concentrated to a final volume of 1.5 mL using Amicon Centricon 30 filtration/concentration devices. The concentrated samples were then desalted on Pierce's 5 ML Kwiksep excellulose plastic desalting columns. The excluded volumes containing RSA or argatroban-C6-RSA were then subjected to BCA microprotein estimation and lyophilization. In addition, these samples were analyzed by LC/MS, sandwich ELISA assays (described above) to measure thrombin binding and immunoblotting."}}, "data": [{"substance": "RSA-argatroban-C6 conjugate: rabbit serum albumin covalently bound by argatroban-C6 NHS ester molecules", "values": [{"measurement": "IC50 (estimated)", "setting": "[1]", "value": "~25", "unit": "nM"}, {"measurement": "average of tethered argatroban molecules conjugated to each RSA molecule", "setting": "[2]", "value": "10 tethered argatroban molecules"}]}]}
